From publication doi:10.1101/868190 (bioRxiv, 2019)
Ends that are not written are not given here.

T1: His-hPPARγ (231-505) ligand-binding domain, wild-type (human, UniProt P37231-1 231-505)
T1 sequence: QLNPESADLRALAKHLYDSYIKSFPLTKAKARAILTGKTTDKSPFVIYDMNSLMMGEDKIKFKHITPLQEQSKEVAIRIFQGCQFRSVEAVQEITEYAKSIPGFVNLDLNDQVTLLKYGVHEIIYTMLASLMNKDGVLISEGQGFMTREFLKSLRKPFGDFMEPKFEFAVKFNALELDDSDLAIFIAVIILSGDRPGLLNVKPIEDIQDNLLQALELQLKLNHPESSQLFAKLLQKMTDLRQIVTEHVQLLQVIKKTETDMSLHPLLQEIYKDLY


Molecular target: T1, His-hPPARγ (231-505) ligand-binding …
Assay: MST

Row | binding result | Binder
1 | binds | NLGLEDIIRKALMG (also: fluorescent label, dye and position not given here) [fluorescent NCoR1 peptide (2260-NLGLEDIIRKALMG-2273)]
2 | binds | EAEEPSLLKKLLLAPA (also: fluorescent label, dye and position not given here) [fluorescent PGC1α peptide (137-EAEEPSLLKKLLLAPA-152)]
